Test results as given in US20230212305A1 (published 2023).

Columns and labels:
[1] = target: T1, human ABCG2 (UniProt Q9UNQ0 1-655); experiment: cell binding
T1 chain: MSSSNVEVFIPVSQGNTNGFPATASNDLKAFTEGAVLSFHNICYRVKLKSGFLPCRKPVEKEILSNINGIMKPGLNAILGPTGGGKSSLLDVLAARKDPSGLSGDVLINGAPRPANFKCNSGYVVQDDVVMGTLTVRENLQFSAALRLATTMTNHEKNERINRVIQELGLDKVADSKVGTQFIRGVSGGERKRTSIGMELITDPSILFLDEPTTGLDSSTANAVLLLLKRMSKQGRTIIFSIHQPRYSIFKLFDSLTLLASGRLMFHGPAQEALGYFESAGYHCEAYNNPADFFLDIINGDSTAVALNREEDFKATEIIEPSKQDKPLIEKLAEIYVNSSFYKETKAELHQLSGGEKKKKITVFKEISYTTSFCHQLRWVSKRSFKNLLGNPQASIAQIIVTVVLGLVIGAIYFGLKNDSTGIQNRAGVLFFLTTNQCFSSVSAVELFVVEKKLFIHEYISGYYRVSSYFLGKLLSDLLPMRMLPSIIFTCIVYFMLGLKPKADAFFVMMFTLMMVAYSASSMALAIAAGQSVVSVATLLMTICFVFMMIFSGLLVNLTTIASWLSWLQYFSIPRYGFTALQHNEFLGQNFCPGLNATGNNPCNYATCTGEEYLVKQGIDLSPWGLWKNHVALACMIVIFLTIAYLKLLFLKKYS

[2] = target: T2, cynomolgus ABCG2 (Macaca fascicularis) (UniProt Q5MB13 1-654); experiment: cell binding
T2 chain: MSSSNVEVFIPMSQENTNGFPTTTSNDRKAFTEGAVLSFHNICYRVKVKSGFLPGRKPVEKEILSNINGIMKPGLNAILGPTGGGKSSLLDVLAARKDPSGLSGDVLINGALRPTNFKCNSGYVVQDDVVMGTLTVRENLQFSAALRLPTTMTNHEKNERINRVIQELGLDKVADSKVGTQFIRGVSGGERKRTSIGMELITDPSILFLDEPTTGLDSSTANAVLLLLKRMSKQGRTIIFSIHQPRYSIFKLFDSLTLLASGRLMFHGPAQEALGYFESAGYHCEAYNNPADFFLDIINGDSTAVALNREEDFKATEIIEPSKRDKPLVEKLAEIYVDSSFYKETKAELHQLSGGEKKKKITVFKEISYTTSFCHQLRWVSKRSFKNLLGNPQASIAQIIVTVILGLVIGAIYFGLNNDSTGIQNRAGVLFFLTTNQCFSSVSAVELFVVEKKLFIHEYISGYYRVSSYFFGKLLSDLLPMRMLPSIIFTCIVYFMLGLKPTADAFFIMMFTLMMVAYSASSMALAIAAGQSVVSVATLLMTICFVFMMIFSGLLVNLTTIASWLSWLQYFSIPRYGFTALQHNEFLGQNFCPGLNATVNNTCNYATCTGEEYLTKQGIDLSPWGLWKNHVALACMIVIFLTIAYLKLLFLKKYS

[3] = target: T1, human ABCG2; experiment: FACS binding to 293T cells
[4] = target: T2, cynomolgus ABCG2 (Macaca fascicularis); experiment: FACS binding to 293T cells
[5] = target: h5D3; experiment: FACS binding, 293T-G2OX cells
[6] = target: G2_620; experiment: FACS binding, 293T-G2OX cells
[7] = target: G2_745; experiment: FACS binding to 293T cells
[8] = target: G2_418; experiment: FACS binding to 293T cells
[9] = target: G2_639; experiment: FACS binding to 293T cells
[10] = target: G2_336; experiment: FACS binding to 293T cells
[11] = target: G2_709; experiment: FACS binding to 293T cells
[12] = target: G2_377; experiment: FACS binding to 293T cells
[13] = target: G2_656; experiment: FACS binding to 293T cells
[14] = target: KNJY-G2-333H; experiment: FACS cell binding
[15] = target: h5D3; experiment: FACS cell binding
[16] = target: h5D3; experiment: FACS cell binding; remark: listed apart in the source

B1: G2.643 mouse (antibody, V domains shown)
VH: VNLVESGPELVKPGTSVKISCKASGYRFTSYYVHWVKQRPGQGLEWIGWIFPGSDNTKYNEKFKGKATLTADTSSSTAYMQLSSLTSEDSAVYFCASIYYGYDGTLYFDYWGQGTSVTVSS
VL: DIVMTQSHTFMSTSVGDRVSVTCKASQNVGNNVAWYQQKPGQSPNALIYSASYRYSGVPDRFTGSGSGTDFTLTISNVQSEDLAEYFCQQYDRYPLTFGGGTKLEIK
Work on B1 yielded an EC50 [1] of 27 nM, an EC50 [2] of 65 nM and a Kd [3] of 5.9 nM. For the same binder, the Kd [4] was 17.1 nM.

B2: hG2 (other)
chain: MSSSNVEVFIPVSQGNTNGFPATASNDLKAFTEGAVLSFHNICYRVKLKSGFLPCRKPVEKEILSNINGIMKPGLNAILGPTGGGKSSLLDVLAARKDPSGLSGDVLINGAPRPANFKCNSGYVVQDDVVMGTLTVRENLQFSAALRLATTMTNHEKNERINRVIQELGLDKVADSKVGTQFIRGVSGGERKRTSIGMELITDPSILFLDEPTTGLDSSTANAVLLLLKRMSKQGRTIIFSIHQPRYSIFKLFDSLTLLASGRLMFHGPAQEALGYFESAGYHCEAYNNPADFFLDIINGDSTAVALNREEDFKATEIIEPSKQDKPLIEKLAEIYVNSSFYKETKAELHQLSGGEKKKKITVFKEISYTTSFCHQLRWVSKRSFKNLLGNPQASIAQIIVTVVLGLVIGAIYFGLKNDSTGIQNRAGVLFFLTTNQCFSSVSAVELFVVEKKLFIHEYISGYYRVSSYFLGKLLSDLLPMRMLPSIIFTCIVYFMLGLKPKADAFFVMMFTLMMVAYSASSMALAIAAGQSVVSVATLLMTICFVFMMIFSGLLVNLTTIASWLSWLQYFSIPRYGFTALQHNEFLGQNFCPGLNATGNNPCNYATCTGEEYLVKQGIDLSPWGLWKNHVALACMIVIFLTIAYLKLLFLKKYS
With B2 the Kd [5] was 2.99 nM, the Kd [6] was 15.8 nM and the Kd [7] was 23.3 nM. It also gave a Kd [8] of 59 nM, a Kd [9] of 46.8 nM and a Kd [10] of 28.2 nM. The Kd [11] was 20.6 nM, the Kd [12] was 16.7 nM and the Kd [13] was 36.8 nM.

B3: ABCG2 (other)
chain: MSSSNVEVFIPVSQGNTNGFPATASNDLKAFTEGAVLSFHNICYRVKLKSGFLPCRKPVEKEILSNINGIMKPGLNAILGPTGGGKSSLLDVLAARKDPSGLSGDVLINGAPRPANFKCNSGYVVQDDVVMGTLTVRENLQFSAALRLATTMTNHEKNERINRVIQELGLDKVADSKVGTQFIRGVSGGERKRTSIGMELITDPSILFLDEPTTGLDSSTANAVLLLLKRMSKQGRTIIFSIHQPRYSIFKLFDSLTLLASGRLMFHGPAQEALGYFESAGYHCEAYNNPADFFLDIINGDSTAVALNREEDFKATEIIEPSKQDKPLIEKLAEIYVNSSFYKETKAELHQLSGGEKKKKITVFKEISYTTSFCHQLRWVSKRSFKNLLGNPQASIAQIIVTVVLGLVIGAIYFGLKNDSTGIQNRAGVLFFLTTNQCFSSVSAVELFVVEKKLFIHEYISGYYRVSSYFLGKLLSDLLPMRMLPSIIFTCIVYFMLGLKPKADAFFVMMFTLMMVAYSASSMALAIAAGQSVVSVATLLMTICFVFMMIFSGLLVNLTTIASWLSWLQYFSIPRYGFTALQHNEFLGQNFCPGLNATGNNPCNYATCTGEEYLVKQGIDLSPWGLWKNHVALACMIVIFLTIAYLKLLFLKKYS
In the case of B3, the Kd [14] is reported as 7.5 nM, the Kd [15] is reported as 81 nM and the Kd [16] is reported as 3.12 nM.
